One substance from patent US20190298769A1 can be followed below.

The target in the experiment is 4-1BB receptor on Jurkat cells that over express 4-1BB/NFκB/Luc (UniProt Q07011). As to the kind of experiment: cell-based or functional assay.
Sequence of UniProt Q07011 (Q07011 24-255 limits assumed): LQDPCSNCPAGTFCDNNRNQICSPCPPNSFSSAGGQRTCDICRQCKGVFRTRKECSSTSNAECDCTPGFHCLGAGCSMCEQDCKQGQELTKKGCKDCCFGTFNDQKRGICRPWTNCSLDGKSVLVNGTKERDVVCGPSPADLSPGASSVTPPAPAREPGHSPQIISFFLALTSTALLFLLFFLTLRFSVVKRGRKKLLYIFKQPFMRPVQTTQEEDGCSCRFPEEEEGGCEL

In turn, “4-1BBL construct (human extracellular 4-1BBL - 4-1BBL linker - GPA) on the surface of engineered erythroid cells (ligand)” showed an NFκB activation (luciferase activity of Jurkat cells that over express 4-1BB/NFκB/Luc) of 80 to 100 fold and an NFκB activation relative to the agonistic 4-1BB monoclonal antibody of 15 fold.
